# From patent US20240254222A1 (Bayer, published 2024)
# T1: Human Semaphorin3A-Sema Domain, TPP-19068 (human, UniProt Q14563 21-569)
# T1 construct: produced inhouse in HEK293-6E; also called human monovalent Sema3A domain
# T1 sequence: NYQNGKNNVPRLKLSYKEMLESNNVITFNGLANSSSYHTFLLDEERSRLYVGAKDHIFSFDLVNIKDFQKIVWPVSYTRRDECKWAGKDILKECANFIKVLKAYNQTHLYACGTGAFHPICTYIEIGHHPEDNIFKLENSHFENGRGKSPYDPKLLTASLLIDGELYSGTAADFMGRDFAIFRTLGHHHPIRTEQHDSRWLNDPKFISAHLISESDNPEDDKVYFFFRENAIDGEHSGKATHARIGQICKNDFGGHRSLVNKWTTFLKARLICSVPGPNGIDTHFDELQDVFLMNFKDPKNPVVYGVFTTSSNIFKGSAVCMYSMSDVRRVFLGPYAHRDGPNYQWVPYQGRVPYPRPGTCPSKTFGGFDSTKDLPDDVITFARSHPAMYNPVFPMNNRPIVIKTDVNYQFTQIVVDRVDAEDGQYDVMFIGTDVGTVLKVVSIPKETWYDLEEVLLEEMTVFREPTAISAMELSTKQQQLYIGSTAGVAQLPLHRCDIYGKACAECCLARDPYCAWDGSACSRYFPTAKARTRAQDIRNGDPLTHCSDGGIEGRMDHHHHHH
# T2: Dog Semaphorin3A-Sema Domain, TPP-19121 (dog, UniProt Q63548 21-569 (rat entry), limits assumed)
# T2 construct: produced inhouse
# T2 chain: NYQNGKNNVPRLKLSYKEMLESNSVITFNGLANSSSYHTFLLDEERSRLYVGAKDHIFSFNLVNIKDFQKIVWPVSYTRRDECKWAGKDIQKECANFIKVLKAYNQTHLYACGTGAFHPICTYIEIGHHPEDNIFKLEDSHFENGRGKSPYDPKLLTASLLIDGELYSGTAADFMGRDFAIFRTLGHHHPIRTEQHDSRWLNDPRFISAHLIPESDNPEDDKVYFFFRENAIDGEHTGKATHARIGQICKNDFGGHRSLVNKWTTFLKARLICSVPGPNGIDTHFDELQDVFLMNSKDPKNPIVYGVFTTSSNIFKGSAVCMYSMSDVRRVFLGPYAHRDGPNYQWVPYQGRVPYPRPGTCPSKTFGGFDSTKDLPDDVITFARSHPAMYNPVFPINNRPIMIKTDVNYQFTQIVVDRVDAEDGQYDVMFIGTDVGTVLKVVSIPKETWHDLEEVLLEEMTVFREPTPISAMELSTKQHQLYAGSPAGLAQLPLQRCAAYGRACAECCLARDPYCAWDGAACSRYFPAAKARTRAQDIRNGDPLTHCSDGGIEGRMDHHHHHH
# T3: Pig Semaphorin3A-Sema Domain, TPP-20176 (pig, UniProt Q63548 21-569 (rat entry))
# T3 construct: produced inhouse
# T3 chain: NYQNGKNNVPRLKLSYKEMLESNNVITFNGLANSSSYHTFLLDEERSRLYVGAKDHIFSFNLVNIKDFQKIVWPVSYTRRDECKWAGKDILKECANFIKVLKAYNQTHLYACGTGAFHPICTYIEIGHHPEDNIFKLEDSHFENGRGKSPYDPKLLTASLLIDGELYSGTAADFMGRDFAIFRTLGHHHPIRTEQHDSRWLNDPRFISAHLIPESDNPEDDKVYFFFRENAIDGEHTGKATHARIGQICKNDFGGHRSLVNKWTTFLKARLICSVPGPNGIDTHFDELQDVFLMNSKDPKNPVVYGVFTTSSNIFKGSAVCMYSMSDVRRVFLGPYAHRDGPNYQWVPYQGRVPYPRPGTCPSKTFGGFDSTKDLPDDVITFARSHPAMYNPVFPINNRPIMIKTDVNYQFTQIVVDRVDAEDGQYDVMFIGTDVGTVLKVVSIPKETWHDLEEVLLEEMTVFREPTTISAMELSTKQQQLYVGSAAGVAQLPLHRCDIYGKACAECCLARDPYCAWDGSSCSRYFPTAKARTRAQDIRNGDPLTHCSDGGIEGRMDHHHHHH
# What was measured:
# [1] = target: T1, Human Semaphorin3A-Sema Domain, …; experiment: SPR, captured antibody, Sema3A domain analyte
# Experimental: (§1) To assess the binding kinetics and affinity of anti-Sema3A antibodies as well as their species cross-reactivity profile, binding assays were conducted using surface plasmon resonance (SPR). Binding assays were performed on a Biacore T200 instrument or on a Biacore 8K+ instrument (Cytiva) at 25° C. using assay buffer HBS P+, 300 mM NaCl, 0.75 mM CaCl₂, 2.5 mM MgCl₂, 1 mg/ml BSA, 0.05% NaN₃. Antibodies were captured either via anti-human Fc IgGs (“Human antibody capture kit”, Order No. BR100839, Cytiva) or in case of Fc-tagged analytes by anti-human Fab IgGs (“Human Fab capture kit”, Order No. 28958325, Cytiva) covalently amine coupled to a Series S CM5 sensor chip (Cytiva). The amine coupling was carried out according to the manufacturer's instructions using 1-ethyl-3-(3-dimethylaminopropyl) carbodiimide hydrochloride (EDC), N-hydroxysuccinimide (NHS) and ethanolamine HCl, pH 8.5 (“Amine Coupling Kit” BR-1000-50, Cytiva.). For phage display hits Fc-tagged human and mouse Sema3A was used as analytes in a concentration range from 1.56-200 nM. Human, mouse, cynomolgus, rat, dog and pig monovalent Sema3A domain were used as analytes in a concentration series from […] in multi cycle kinetics mode or in 100 nM for binding analysis only. The sensor surface was regenerated with glycine pH 2.0 after each antigen injection. Obtained sensorgrams were double referenced (subtraction of reference flow cell signal and buffer injection) and were fitted to a 1:1 Langmuir binding model to derive kinetic data using the Biacore T200 Evaluation software.
# [2] = target: T2, Dog Semaphorin3A-Sema Domain, TPP-19121; experiment: SPR, captured antibody, Sema3A domain analyte
# Experimental: as §1
# [3] = target: T3, Pig Semaphorin3A-Sema Domain, TPP-20176; experiment: SPR, captured antibody, Sema3A domain analyte
# Experimental: as §1
# [4] = target: Human Semaphorin3A-Fc (R&D Systems), TPP-13211 (human); experiment: cell-based or functional assay
# [5] = target: T4, Human Semaphorin3A-Fc (R&D Systems), TPP-13211 (human); experiment: ELISA, coated Sema3A-Fc, antibody 0.00015-10 ug/ml
# T4 construct: R&D Systems 1250-S3; also called recombinant human Sema3A-Fc chimera
# Experimental: For the assessment of binding selectivity to Sema3A vs Sema3G, 1 nM recombinant human Sema3A-Fc chimera (R&D Systems) or recombinant human GST—Sema3G (Abnova) were coated on Maxisorb plates, incubated with antibodies in a dose-response curve from 0.00015-10 μg/ml, and the binding of antibodies quantified using HRP coupled anti-human antiserum and chemiluminescent substrate.
# T4 sequence (chain, as listed by the source limits assumed): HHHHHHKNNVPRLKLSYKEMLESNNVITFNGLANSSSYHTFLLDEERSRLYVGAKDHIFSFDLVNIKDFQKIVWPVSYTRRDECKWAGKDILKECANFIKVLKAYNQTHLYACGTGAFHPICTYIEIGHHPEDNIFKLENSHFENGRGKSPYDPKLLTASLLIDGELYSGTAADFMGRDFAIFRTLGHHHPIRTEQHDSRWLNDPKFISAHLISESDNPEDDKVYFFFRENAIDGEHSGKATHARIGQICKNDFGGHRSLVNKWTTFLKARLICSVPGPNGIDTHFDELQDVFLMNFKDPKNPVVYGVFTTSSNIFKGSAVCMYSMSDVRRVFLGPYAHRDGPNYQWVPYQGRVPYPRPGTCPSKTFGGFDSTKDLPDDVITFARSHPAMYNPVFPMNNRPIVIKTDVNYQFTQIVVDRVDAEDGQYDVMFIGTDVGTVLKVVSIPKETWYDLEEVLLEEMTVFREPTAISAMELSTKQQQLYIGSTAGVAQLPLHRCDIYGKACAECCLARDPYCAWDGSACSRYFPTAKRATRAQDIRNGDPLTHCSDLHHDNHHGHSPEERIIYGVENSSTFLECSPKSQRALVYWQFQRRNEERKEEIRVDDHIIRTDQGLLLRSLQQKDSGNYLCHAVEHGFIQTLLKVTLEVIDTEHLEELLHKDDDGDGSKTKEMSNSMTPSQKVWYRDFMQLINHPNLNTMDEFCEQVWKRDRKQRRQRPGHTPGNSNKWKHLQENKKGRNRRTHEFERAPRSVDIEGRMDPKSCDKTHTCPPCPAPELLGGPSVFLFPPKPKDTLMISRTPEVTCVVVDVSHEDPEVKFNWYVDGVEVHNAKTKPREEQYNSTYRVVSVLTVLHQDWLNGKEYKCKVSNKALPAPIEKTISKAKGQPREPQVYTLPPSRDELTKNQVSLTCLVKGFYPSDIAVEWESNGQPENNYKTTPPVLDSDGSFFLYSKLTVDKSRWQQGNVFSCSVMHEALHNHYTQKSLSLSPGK
Binder,Kd [1] [nM],Kd [2] [nM],Kd [3] [nM],"EC50 [nM], MCM assay [4] [nM]",EC50 [5] [nM],binding result [1],binding result [2],binding result [3]
"TPP-23337 (antibody, human IgG4 S228P, lambda, V domains shown) VH: EVQLLESGGGLVQPGGSLRLSCAASGFTFSSYAMSWVRQAPGKGLEWVSAIGYGGDTYYADSVKGRFTISRDNSKNTLYLQMNSLRAEDTAVYYCARRDDYTSRDAFDYWGQGTLVTVSS VL: not shown",0.05,0.0045,0.011,0.33,15.5,,,
"TPP-15370 (antibody, human IgG1, lambda, V domains shown, human IgG1; also called IgG1, hit from panning; parental mAb) VH: EVQLLESGGGLVQPGGSLRLSCAASGFTFSSYGMHWVRQAPGKGLEWVSAIGTGGDTYYADSVMGRFTISRDNSKNTLYLQMNSLRAEDTAVYYCARRDDYTSRDAFDVWGQGTLVTVSS VL: not shown",10,22,9,4.13,,,,
"TPP-23346 (antibody, human IgG4 S228P, lambda, V domains shown) VH: EVQLLESGGGLVQPGGSLRLSCAASGFTFYSYAMLWVRQAPGKGLEWVSAIGTGGDTYYADSVKGRFTISRDNSKNTLYLQMNSLRAEDTAVYYCARRDDYTSRDAFDYWGQGTLVTVSS VL: not shown",0.072,0.061,0.058,1.27,,,,
"TPP-23345 (antibody, human IgG4 S228P, lambda, V domains shown) VH: EVQLLESGGGLVQPGGSLRLSCAASGFTFSSYAMSWVRQAPGKGLEWVSAIGYGGDTYYADSVKGRFTISRDNSKNTLYLQMNSLRAEDTAVYYCARRDDYTSRDAFDYWGQGTLVTVSS VL: not shown",0.065,0.046,0.055,0.93,,,,
"TPP-23298 (antibody, human IgG4 S228P, lambda, V domains shown) VH: EVQLLESGGGLVQPGGSLRLSCAASGFTFYSYAMSWVRQAPGKGLEWVSAIGTGGDTYYADSVKGRFTISRDNSKNTLYLQMNSLRAEDTAVYYCARRDDYTSRDAFDYWGQGTLVTVSS VL: not shown",0.087,0.07,0.067,0.4,1.6,,,
"TPP-30792 (antibody, human IgG1, lambda, V domains shown, IgG1; prior art, WO 2020/261281; also called 3H4 Univ Ramot; 3H4 (Ramot) Clon I) V domain 1: EVQLLESGGGLVQPGGSLRLSCAASGFTFRSYAVHWVRQAPGKGLEWVSSTEGSGVGTSYTDSVKGRFTISRDNSKNTLYLQMNSLRAEDTAVYYCARMLGGGNPLDYLDYWGQGTLVTVSS V domain 2: QSVLTQPPSASGTPGQRVTISCSGSSSNLGEGYDVHWYQQLPGKAPKLLIYYSDFRPSGVSDRFSGSKSGTSASLAISGLQSEDEADYYCAAWDDSLSSQVFGGGTQVTVLG",,,,,,no binding,no binding,no binding
"TPP-30790 (antibody, human IgG1, kappa, V domains shown, prior art, WO 2020/225400; also called BI clone III; Böhringer (BI) Clone III) VH: EVQLVESGGGLVQLGGSLRLSCAASGFTFSSYYMSWVRQAPGKGLEWVSTIIKSGGYAYYPDSVKDRFTISRDNSKNTLYLQMNSLRAEDTAVYYCVKGGQGAMDYWGQGTTVTVSS VL: EIVLTQSPATLSLSPGERATLSCRASQSIGDYLHWYQQKPGQAPRLLIYYASQSISGIPARFSGSGSGTDFTLTISSLEPEDFAVYYCQQGYSFPYTFGGGTKLEIKR",0.015,0.1,0.036,,0.08,,,
"TPP-30791 (antibody, human IgG1, kappa, V domains shown, prior art, WO 2020/225400; also called BI clone IV; Böhringer (BI) Clone IV) VH: EVQLVESGGGLLQLGGSLRLSCAASGFTFSSYYMSWVRQAPGKGLEWVSTIIKSGGYAYYPDSVKDRFTISRDNSKNTLNLQMNSLRAEDTAVYYCVKGGQGAMDYWGQGTTVTVSS VL: EIVLTQSPATLSLSPGERATLSCRASQSIGDYLHWYQQKPGQAPRLLIKYASQSISGIPARFSGSGSGTDFTLTISSLEPEDFAVYYCQQGYSFPYTFGGGTKLEIKR",0.012,0.078,0.029,,0.08,,,

# Further binders by falling Kd [1], results first:
Kd [1] [nM],Kd [2] [nM],Kd [3] [nM],"EC50 [nM], MCM assay [4] [nM]",EC50 [5] [nM],binding result [1],binding result [2],binding result [3],Binder
73,50,100,,,,,,"TPP-11489 (antibody, human IgG1, lambda, human IgG1; also called Chiome; Chiome Prior Art (hIgG1)) heavy: not shown light: SYELTQPPSVSVSPGQTARITCSGGGSYTGSYYYGWYQQKPGQAPVTVIYYNNKRPSDIPERFSGSLSGTTNTLTISGVQAEDEADYYCGSADNSGDAFGTGTKVTVLGQPKAAPSVTLFPPSSEELQANKATLVCLISDFYPGAVTVAWKADSSPVKAGVETTTPSKQSNNKYAASSYLSLTPEQWKSHRSYSCQVTHEGSTVEKTVAPTECS"
15,19,7.2,5.07,,,,,"TPP-15374 (antibody, human IgG1, lambda, V domains shown, human IgG1; also called IgG1, hit from panning; parental mAb) VH: EVQLLESGGGLVQPGGSLRLSCAASGFTFSSYEMNWVRQAPGKGLEWVSGISWNSGSIGYADSVKGRFTISRDNSKNTLYLQMNSLRAEDTAVYYCARSGYSSSWFDPDFDYWGQGTLVTVSS VL: QSVLTQPPSASGTPGQRVTISCTGSSSNIGAGYDVHWYQQLPGTAPKLLIYGNSNRPSGVPDRFSGSKSGTSASLAISGLRSEDEADYYCSSYAGSNPYVVFGGGTKLTVLG"
6.9,7.5,4,11.3,,,,,"TPP-17755 (antibody, human IgG1, lambda, V domains shown, also called Samsung; Samsung Prior Art F11) VH: EVQLLESGGGLVQTGGSLRLSCAASGFTFSDYAMSWVRQAPGKGLEWVSWIYYDSGSKYYADSVKGRFTISRDNSKNTLYLQMNSLRAEDTAVYYCAKLNGDFDYWGQGTLVTVSS VL: QSVLTQPPSASGTPGQRVTISCSGSSSNIGNNDVSWYQQLPGTAPKLLIYADSHRPSGVPDRFSGSKSGTSASLAISGLRSEDEADYYCGAWDSSLSGYVFGGGTKLTVLG"
0.022,0.11,0.039,,0.1,,,,"TPP-30789 (antibody, human IgG1, kappa, V domains shown, prior art, WO 2020/225400; also called BI clone II; Böhringer (BI) Clone II) VH: EVQLVESGGGLVQPGGSLRLSCAASGFPFSSYYMSWVRQAPGKGLEWVSTIIKSGGYAYYPDSVKDRFTISRDNSKNTLYLQMSSLRAEDTAVYYCVRGGQGAMDYWGQGTTVTVSS VL: EIVLTQSPATLSLSPGERATLSCRASQSIGDYLHWYQQKPGQAPRLLIKYASQSISGIPARFSGSGSGTDFTLTITSLEPEDFAVYYCQQGYSFPYTFGGGTKLEIKR"
